PMC10397247
Blank lines part the entries; values can stand above or below the binder they belong to.

How the values were obtained:
P9bH1 = molecular target: T1, P9bH1; assay: two-hybrid library CCNG1;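 note: natural log of median RNA to DNA barcode read ratio; higher means stronger binding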
T1 chain: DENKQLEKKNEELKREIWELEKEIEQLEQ

P7bH1 = molecular target: T2, P7bH1; assay: two-hybrid library CCNG1;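 note: natural log of median RNA to DNA barcode read ratio; higher means stronger binding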
T2 chain: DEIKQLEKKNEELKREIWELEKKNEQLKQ

P3bH1 = molecular target: T3, P3bH1; assay: two-hybrid library CCNG1;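 note: natural log of median RNA to DNA barcode read ratio; higher means stronger binding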
T3 chain: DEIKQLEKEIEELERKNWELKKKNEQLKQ

P1bH1 = molecular target: T4, P1bH1; assay: two-hybrid library CCNG1;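 note: natural log of median RNA to DNA barcode read ratio; higher means stronger binding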
T4 chain: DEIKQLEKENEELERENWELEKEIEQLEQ

P2bH1 = molecular target: T5, P2bH1; assay: two-hybrid library CCNG1;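 note: natural log of median RNA to DNA barcode read ratio; higher means stronger binding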
T5 chain: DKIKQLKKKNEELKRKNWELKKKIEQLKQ

P8bH1 = molecular target: T6, P8bH1; assay: two-hybrid library CCNG1;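 note: natural log of median RNA to DNA barcode read ratio; higher means stronger binding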
T6 chain: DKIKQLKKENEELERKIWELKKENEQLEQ

P6bH1 = molecular target: T7, P6bH1; assay: two-hybrid library CCNG1
T7 chain: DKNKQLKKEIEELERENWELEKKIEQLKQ

P4bH1 = molecular target: T8, P4bH1; assay: two-hybrid library CCNG1
T8 chain: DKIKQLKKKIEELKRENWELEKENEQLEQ

P5bH1 = molecular target: T9, P5bH1; assay: two-hybrid library CCNG1
T9 chain: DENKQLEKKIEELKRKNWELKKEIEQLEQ

P8A-bN = molecular target: T10, P8A-bN; assay: two-hybrid library CCNG1
T10 chain: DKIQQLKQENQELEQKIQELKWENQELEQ

O7-bS = molecular target: T11, O7-bS; assay: two-hybrid library CCNG1
T11 chain: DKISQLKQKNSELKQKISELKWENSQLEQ

O3-bS = molecular target: T12, O3-bS; assay: two-hybrid library CCNG1
T12 chain: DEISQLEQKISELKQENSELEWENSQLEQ

O2-bS = molecular target: T13, O2-bS; assay: two-hybrid library CCNG1
T13 chain: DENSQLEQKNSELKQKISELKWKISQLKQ

O5-bS = molecular target: T14, O5-bS; assay: two-hybrid library CCNG1
T14 chain: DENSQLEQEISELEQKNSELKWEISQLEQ

O6-bS = molecular target: T15, O6-bS; assay: two-hybrid library CCNG1
T15 chain: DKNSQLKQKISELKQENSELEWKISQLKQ

O16-bS = molecular target: T16, O16-bS; assay: two-hybrid library CCNG1
T16 chain: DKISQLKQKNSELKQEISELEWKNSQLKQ

O14-bS = molecular target: T17, O14-bS; assay: two-hybrid library CCNG1
T17 chain: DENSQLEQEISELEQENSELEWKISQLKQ

O4-bS = molecular target: T18, O4-bS; assay: two-hybrid library CCNG1
T18 chain: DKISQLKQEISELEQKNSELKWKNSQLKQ

O8-bS = molecular target: T19, O8-bS; assay: two-hybrid library CCNG1
T19 chain: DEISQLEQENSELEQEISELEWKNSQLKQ

4H369-AA = molecular target: T20, 4H369-AA; assay: two-hybrid library CCmax; conditions: mean of both orientations
T20 chain: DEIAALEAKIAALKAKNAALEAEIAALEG

4H2614-AA = molecular target: T21, 4H2614-AA; assay: two-hybrid library CCmax; conditions: mean of both orientations
T21 chain: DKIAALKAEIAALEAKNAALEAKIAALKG

4H1405-AA = molecular target: T22, 4H1405-AA; assay: two-hybrid library CCmax
T22 chain: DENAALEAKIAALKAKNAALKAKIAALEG

4H3625-AA = molecular target: T23, 4H3625-AA; assay: two-hybrid library CCmax; conditions: mean of both orientations
T23 chain: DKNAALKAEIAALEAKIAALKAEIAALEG

4H2211-AA = molecular target: T24, 4H2211-AA; assay: two-hybrid library CCmax; conditions: mean of both orientations
T24 chain: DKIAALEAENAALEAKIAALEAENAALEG

4H3664-AA = molecular target: T25, 4H3664-AA; assay: two-hybrid library CCmax; conditions: mean of both orientations
T25 chain: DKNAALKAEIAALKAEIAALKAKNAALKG

4H4033-AA = molecular target: T26, 4H4033-AA; assay: two-hybrid library CCmax; conditions: mean of both orientations
T26 chain: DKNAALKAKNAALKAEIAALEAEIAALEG

4H175-AA = molecular target: T27, 4H175-AA; assay: two-hybrid library CCmax
T27 chain: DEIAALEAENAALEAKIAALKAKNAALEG

4H3922-AA = molecular target: T28, 4H3922-AA; assay: two-hybrid library CCmax; conditions: mean of both orientations
T28 chain: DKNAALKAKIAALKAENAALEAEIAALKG

4H327-AA = molecular target: T29, 4H327-AA; assay: two-hybrid library CCmax; conditions: mean of both orientations
T29 chain: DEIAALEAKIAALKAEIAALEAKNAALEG

4H2536-AA = molecular target: T30, 4H2536-AA; assay: two-hybrid library CCmax; conditions: mean of both orientations
T30 chain: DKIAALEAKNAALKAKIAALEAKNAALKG

4H481-AA = molecular target: T31, 4H481-AA; assay: two-hybrid library CCmax; conditions: mean of both orientations
T31 chain: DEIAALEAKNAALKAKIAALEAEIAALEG

4H2935-AA = molecular target: T32, 4H2935-AA; assay: two-hybrid library CCmax; conditions: mean of both orientations
T32 chain: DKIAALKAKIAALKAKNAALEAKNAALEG

4H2608-AA = molecular target: T33, 4H2608-AA; assay: two-hybrid library CCmax; conditions: mean of both orientations
T33 chain: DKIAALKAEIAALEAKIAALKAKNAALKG

4H3605-AA = molecular target: T34, 4H3605-AA; assay: two-hybrid library CCmax; conditions: mean of both orientations
T34 chain: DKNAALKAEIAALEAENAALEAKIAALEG

4H2238-AA = molecular target: T35, 4H2238-AA; assay: two-hybrid library CCmax; conditions: mean of both orientations
T35 chain: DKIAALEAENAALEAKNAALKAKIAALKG

4H662-AA = molecular target: T36, 4H662-AA; assay: two-hybrid library CCmax; conditions: mean of both orientations
T36 chain: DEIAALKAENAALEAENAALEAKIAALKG

4H2513-AA = molecular target: T37, 4H2513-AA; assay: two-hybrid library CCmax; conditions: mean of both orientations
T37 chain: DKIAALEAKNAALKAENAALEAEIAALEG

4H2726-AA = molecular target: T38, 4H2726-AA; assay: two-hybrid library CCmax; conditions: mean of both orientations
T38 chain: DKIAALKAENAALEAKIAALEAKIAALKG

4H55-AA = molecular target: T39, 4H55-AA; assay: two-hybrid library CCmax
T39 chain: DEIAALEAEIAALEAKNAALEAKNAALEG

- interaction score (P9bH1): -0.87
- interaction score (P7bH1): -0.809
- interaction score (P3bH1): -1.08
- interaction score (P1bH1): -0.717
- interaction score (P2bH1): 1.17
- interaction score (P8bH1): -0.757
- interaction score (P6bH1): -1.2
- interaction score (P4bH1): -1.38
- interaction score (P5bH1): -1.15
Binder: DEIKQLEKENEELERENWELEKEIEQLEQ [P1bH1]

- interaction score (P8A-bN): -0.473
- interaction score (O7-bS): -0.1
- interaction score (O3-bS): -0.0513
- interaction score (O2-bS): -1.15
- interaction score (O5-bS): -0.394
- interaction score (O6-bS): 0.332
- interaction score (O16-bS): 0.936
- interaction score (O14-bS): -1.18
- interaction score (O4-bS): 0.126
- interaction score (O8-bS): -2.39
Binder: DENSQLEQEISELEQENSELEWKISQLKQ [O14-bS]

- interaction score (4H369-AA): -0.585
- interaction score (4H2614-AA): 1.52
- interaction score (4H1405-AA): -1.08
- interaction score (4H3625-AA): -1.11
- interaction score (4H2211-AA): 1.88
- interaction score (4H3664-AA): -1.67
- interaction score (4H4033-AA): -0.407
- interaction score (4H175-AA): 1.87
- interaction score (4H3922-AA): 0.997
- interaction score (4H327-AA): -1.19
- interaction score (4H2536-AA): -1.01
- interaction score (4H481-AA): -0.893
- interaction score (4H2935-AA): -1.84
- interaction score (4H2608-AA): -0.735
- interaction score (4H3605-AA): 2.26
- interaction score (4H2238-AA): -1.22
- interaction score (4H662-AA): 0.709
- interaction score (4H2513-AA): -1.52
- interaction score (4H2726-AA): 0.87
- interaction score (4H55-AA): -1.42
Binder: DENAALEAKIAALKAKNAALKAKIAALEG [4H1405-AA]
